The record followed here is patent US20120263730A1 (DEUTSCHES KREBSFORSCHUNGSZENTRUM, published 2012).

Usually Kd stands for the concentration at which binding is half-saturated. Lower therefore signals tighter binding.

The chains are these.
B3: hRspo1-AP (human Rspondin-1 fused C-terminally with alkaline phosphatase) (ligand, UniProt Q2MKA7 21-263, looked up)
chain: SRGIKGKRQRRISAEGSQACAKGCELCSEVNGCLKCSPKLFILLERNDIRQVGVCLPSCPPGYFDARNPDMNKCIKCKIEHCEACFSHNFCTKCKEGLYLHKGRCYPACPEGSSAANGTMECSSPAQCEMSEWSPWGPCSKKQQLCGFRRGSEERTRRVLHAPVGDHAACSDTKETRRCTVRRVPCPEGQKRRKGGQGRRENANRNLARKESKEAGAGSRRRKGQQQQQQQGTVGPLTSAGPA
notes: Used as conditioned medium from HEK293T cells; also called hRspol-AP; not shown: alkaline phosphatase (AP) tag

The target in assay [1] is T1, Wnt5aV5 (V5-tagged Wnt5a) (mouse, UniProt P22725 62-380, limits assumed).
T1 construct: The construct text says 'mWnt3a was subcloned' for pPGKmWnt5aV5, which is probably a slip; Conditioned medium from stably transfected L cells; also called mWnt5aV5; recombinant Wnt5a; not shown: V5 tag
T1 sequence (looked up): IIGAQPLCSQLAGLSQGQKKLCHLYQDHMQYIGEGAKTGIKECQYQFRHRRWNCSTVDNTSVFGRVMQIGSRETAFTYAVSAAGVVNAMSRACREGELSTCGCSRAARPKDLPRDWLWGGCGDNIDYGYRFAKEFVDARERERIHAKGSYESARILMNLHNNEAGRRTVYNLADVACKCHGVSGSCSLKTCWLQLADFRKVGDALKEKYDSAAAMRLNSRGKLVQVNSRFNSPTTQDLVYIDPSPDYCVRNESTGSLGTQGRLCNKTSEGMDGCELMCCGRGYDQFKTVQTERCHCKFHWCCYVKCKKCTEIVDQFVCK
Put plainly: cell surface binding on transfected HEK293T cells. An excerpt:
(A-C) Cell surface binding assays. (A, D) Rspo3 binds to syndecan 4 and glypican 3. HEK293T cells were transfected with indicated plasmids and V5-tagged Wnt5a or alkaline phosphatase tagged Rspo3, Dkk1, or TSP proteins were applied for cell surface binding as indicated. (B, C, E, F) Cells were transfected with indicated plasmids and conditioned media.
(§1) Protein conditioned media were produced by transient transfection of HEK293T cells with plasmids encoding fusion proteins: hRspol-AP, hRspo2ΔC-AP, hRspo3ΔC-AP, hRspo3TSP-AP, and dkk1-AP in complete DMEM. XWnt8-hFzd5 fusion was produced in serum-free medium (OPTIMEM I, Gibco) and conditioned medium was concentrated about 100-fold using Centricon Plus-20 filters (Millipore). Wnt5aV5 protein conditioned media was produced using L cells stable transfected with pWnt5aV5. For cell-surface binding experiments, 293T cells were plated on polylysine coated plates, transfected with genes to be tested using FuGENE 6 (Roche) for 48 h, incubated with conditioned media containing fusion proteins for 2 h on ice, washed with Hank's buffer, fixed for 30 min with 0,5mM DSP (Pierce) in Hank's-100mM HEPES, pH 7,2, washed with 0,1 M Tris pH 8,0 and stained with Fast Red (Roche). […] It should be compared with background staining obtained from cells transfected with control plasmid or other genes that are not able bind applied fusion protein.

Assay [2] addresses B3. In words: cell surface binding, AP fusion on transfected HEK293T cells.
Source text: (§2) (A) Rspo2 and Rspo3 bind to Syndecan-1, Syndecan-2, Syndecan-3 and Syndecan-4. […] HEK293 T-cells were transfected with indicated plasmids and alkaline phosphatase tagged Rspo1, Rspo2, Rspo3 and Rspo4 proteins were applied for cell surface binding as indicated. Cells were transfected with indicated plasmids and conditioned media containing alkaline phosphatise (AP)-fusion proteins of R-spondins were applied for cell surface binding and AP staining as indicated. (B) Cells were transfected with indicated plasmids and incubated with or without NaClO₃. After 24 h Rspo3-AP was applied for binding and proceeded for staining. (C) In vitro binding assay with N-streptag Sdc4ΔTMC purified from conditioned media of control or NaCIO₃ treated cells with purified Rspo3-AP (RU, relative units). (D) Scatchard plot analysis for in vitro binding assays with purified N-streptag Sdc4ΔTMC and Rspo3-AP. (E) Rspo3 binds to Glypican-1, Glypican-2, Glypican-3, Glypican-4, Glypican-5 and Glypican-6.
as §1

Assay [3] deals with T2, hRspo3ΔC-AP (human Rspondin-3 aa 1-209 fused to alkaline phosphatase) (human, UniProt Q9BXY4 22-209).
T2 construct: partially purified for the in vitro assay; also called Rspo3-AP; hRspo3-AP; not shown: alkaline phosphatase (AP) tag
T2 sequence: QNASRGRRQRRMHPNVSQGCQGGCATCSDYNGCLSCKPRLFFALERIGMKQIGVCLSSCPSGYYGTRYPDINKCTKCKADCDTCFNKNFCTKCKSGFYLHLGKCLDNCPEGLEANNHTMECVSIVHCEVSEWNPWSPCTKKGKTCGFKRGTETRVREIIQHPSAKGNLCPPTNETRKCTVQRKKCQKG
Put plainly: in vitro binding assay: N-streptag Sdc4ΔTMC on streptavidin-coated plates, serially diluted hRspo3ΔC-AP, bound AP activity by chemiluminescence, Scatchard plot. How it is done:
For the in vitro binding assay white, high binding ELISA 96 well plates (Greiner) were coated overnight at 4° C. with 100 μL of 2 μg/mL Streptavidin in bicarbonate buffer (NaHCO₃, 50 mM, pH 9,6). Wells were washed 6 times with […] TBST and incubated with […] of blocking buffer (5% BSA, 1mM MgCl₂ on TBST) on a shaker for 1h at RT. The wells were loaded with […] N-streptag Sdc4ATMC protein in blocking buffer and allowed to bind overnight on a shaker at 4° C. Wells were washed 6 times with […] TBST and incubated with […] of blocking buffer for 1 h. For the binding experiments, […] of serially diluted hRspo3ΔC-AP were placed in wells coated with blocking buffer or N-streptag Sdc4ΔTMC. After 2 h incubation at RT wells were washed 6 times with […] TBST. Bound AP activity was measured using chemiluminescent SEAP Reporter Gene Assay (Roche). For each dilution, background binding value was subtracted from hRspo3ΔC-AP value. Binding data were analyzed by Scatchard plot using Excel.

The target of a further assay is T3, mouse Syndecan-3 (mouse, UniProt Q64519 45-442, glycosaminoglycan chains (sites not given)).
T3 construct: whole, on cells; Expressed on transfected HEK293T cells; also called Sdc3; mSdc3
T3 sequence (Q64519 45-442): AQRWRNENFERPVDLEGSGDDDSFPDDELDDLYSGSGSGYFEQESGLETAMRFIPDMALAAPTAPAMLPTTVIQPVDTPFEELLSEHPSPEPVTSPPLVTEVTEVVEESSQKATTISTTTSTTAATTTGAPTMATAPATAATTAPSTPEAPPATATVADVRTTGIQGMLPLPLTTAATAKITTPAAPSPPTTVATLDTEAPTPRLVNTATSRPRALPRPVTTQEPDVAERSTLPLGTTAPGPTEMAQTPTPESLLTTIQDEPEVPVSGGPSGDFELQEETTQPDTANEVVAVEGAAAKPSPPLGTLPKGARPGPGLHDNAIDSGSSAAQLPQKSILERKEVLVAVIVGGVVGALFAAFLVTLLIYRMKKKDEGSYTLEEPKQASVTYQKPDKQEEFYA
Put plainly: cell surface binding, AP fusion on transfected HEK293T cells.
Source text: as §2, §1

The target of another assay is T4, mouse Syndecan-1 (mouse, UniProt P18828 23-311, glycosaminoglycan chains (sites not given)).
T4 construct: whole, on cells; Expressed on transfected HEK293T cells; also called Sdc1; mSdc1
T4 sequence (looked up): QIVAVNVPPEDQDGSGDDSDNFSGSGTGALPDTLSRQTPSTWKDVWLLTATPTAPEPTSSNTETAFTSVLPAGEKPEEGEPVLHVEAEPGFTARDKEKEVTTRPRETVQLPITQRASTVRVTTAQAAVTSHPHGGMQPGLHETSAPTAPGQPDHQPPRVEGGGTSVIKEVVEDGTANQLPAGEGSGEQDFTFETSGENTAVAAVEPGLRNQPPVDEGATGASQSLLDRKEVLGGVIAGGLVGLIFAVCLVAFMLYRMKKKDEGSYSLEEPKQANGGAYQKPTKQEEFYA
The description is as above.
Source text: as §2, §1

B1: human Syndecan-4 (receptor)
chain: ESIRETEVIDPQDLLEGRYFSGALPDDEDVVGPGQESDDFELSGSGDLDDLEDSMIGPEVVHPLVPLDNHIPERAGSGSQVPTEPKKLEENEVIPKRISPVEESEDVSNKVSMSSTVQGSNIFERTEVLAALIVGGIVGILFAVFLILLLMYRMKKKDEGSYDLGKKPIYKKAPTNEFYA
modifications: glycosaminoglycan chains (GAGs)
notes: Expressed on transfected HEK293T cells; also called Sdc4; hSdc4
In the case of B1, the binding result in assay [1] and in assay [2] was “no binding” in each case.

B2: N-streptag Sdc4ΔTMC (human Syndecan-4 extracellular domain, last 52 amino acids deleted, N-terminal Streptag-HA-CBP) (receptor)
chain: ESIRETEVIDPQDLLEGRYFSGALPDDEDVVGPGQESDDFELSGSGDLDDLEDSMIGPEVVHPLVPLDNHIPERAGSGSQVPTEPKKLEENEVIPKRISPVEESEDVSNKVSMSSTVQGSNIFERTE
modifications: sulfated glycosaminoglycan chains (GAGs)
notes: The Sdc4 signal peptide was replaced by that of mKremen2; Partially purified from conditioned medium of HEK293T cells and captured on streptavidin-coated plates; also called N-streptag-hSdc4ΔTMC; purified extracellular domain of Sdc4; not shown: Streptag-HA-CBP fragment of the pGLUE expression vector
With B2, binding in assay [3] was put at a Kd of 880 pM.

For B3, the binding result in the assay with mouse Syndecan-3 and with mouse Syndecan-1 was “no binding” in each case.
